The results in this text go back to PMC5599985.

In assay [1] the target is biotinylated synthetic peptide containing the C-terminal 16 amino-acid residues of harmonin-a1 including the PBM. The assay is described as follows: SPR.
The target of assay [2] is NTD-PDZ1 supramodule of harmonin-a1. The assay is described as follows: NMR titration.
Assay [3] deals with PDZ2 domain of harmonin-a1 (amino acids 197-308). The assay is described as follows: NMR titration.

With “NTD-PDZ1 supramodule of harmonin-a1 (domain or fragment)”, in assay [1], the Kd was 61 µM.

Regarding “synthetic peptide of the C-terminal 16 residues of harmonin-a1 (amino acids 533-548) including the PBM”, the Kd was found to be 51 µM in assay [2] and 375 µM in assay [3].
